Measurements from patent US20040248129A1, “Rhesus monkey, dog and feeret melanin-concentrating hormone type 1 receptor” (priority 2001, published 2004).
Where “and” joins values, the source holds several entries; their conditions need not be identical. Identical values can stand only once. Positions of bridges follow the written chain, without caps; N, C: chain ends. No end group written: not given here.

Assays:
rhesus MCH-1R [1] = biological target: T1, rhesus MCH-1R (Macaca mulatta, UniProt Q8MJ89); test: Intracellular calcium (fura-2) in HEK293T cells transiently expressing rhesus MCH-1R; assay type: cell-based, rhesus monkey; conditions: read-out: EC50, increase in intracellular calcium levels
T1 construct: expressed in transfected cells; host or cells: HEK293T
Excerpt: The entire coding sequence of rhesus MCH-1R was cloned into EcoRI-NotI site of pEF1lV5-HisB plasmid vector (Invitrogen, Carlsbad, Calif.). The resultant construct was transfected into HEK293T cells using LipofectAmine PLUS (Life Technologies, Rockville, Md.) according to the manufacture's instructions. Human embryonic kidney cells constitutively expressing SV40 large T antigen (HEK-293T) were maintained in Dulbecco's modified Eagle medium (Life Technologies) supplemented with 10% fetal bovine serum, 100 units/ml penicillin-G and 100 μg/ml streptomycin at 37° C. with 5% CO2 in a humidified atmosphere.
The intracellular calcium ion concentration ([Ca^2+]i) was measured fluorometrically using a Ca^2+-sensitive fluorescent dye, fura-2. HEK293T cells transiently transfected with pEF1N5-HisB plasmid vector harboring rhesus MCH-1R cDNA were harvested by phosphate-buffered saline containing 2 mM EDTA 48 hours after transfection, and washed once with the assay buffer (Hanks' balanced salt solution containing 20 mM HEPES and 0.1% BSA, pH 7.4). […] Data were analyzed using the software GraphPad Prism Version 3.0 (GraphPad Software, Inc., San Diego, Calif., USA).

rhesus MCH-1R [2] = biological target: T1, rhesus MCH-1R; test: Inhibition of [125I]-MCH binding to rhesus MCH-1R expressed on HEK293T cells (filtration); set-up: species or system rhesus monkey; conditions: 100 pM [125I]-MCH, 4×10^5 cells/tube, 30 min, 37° C.
Method: (§1) HEK293T cells transfected with pEF1IV5-HisB/MCH1R plasmid were harvested by phosphate-buffered saline containing 2 mM EDTA 48 hours after transfection, and washed once with the assay buffer (Hanks' balanced salt solution containing 20 mM HEPES, 0.2% BSA and 100 μg/ml bacitracin, pH 7.4). The cells (4×10^5 cells/tube) were then incubated in 250 μl/tube of the same buffer with 100 pM […] for 30 minutes at 37° C. After the incubation, bound and free [^25I]-MCH were separated by filtration using a Unifilter GF/B glass filter (Packard Instrument) presoaked with 0.3% polyethylenimine. The remaining radioactivity on the filter was quantitated using a TopCount HTS (Packard instrument) with a Microscint 0 scintillation cocktail (Packard instrument). Specific binding was defined as the difference between total binding and nonspecific binding in the presence of 1 μM cold MCH. Data were analyzed using GraphPad Prism Version 3.0.

[3] = system: mock transfected cells (HEK293T); test: Radioligand binding to mock transfected HEK293T cells; set-up: species or system human
rhesus MCH-1R [4] = biological target: T1, rhesus MCH-1R; test: Radioligand binding to adherent HEK293T cells transfected with rhesus MCH-1R; set-up: species or system rhesus monkey
Method: HEK293T cells were seeded into 24-well culture plates coated with poly-D-Lys at 1×10^5 cells/well and were cultured during over-night. The adherent cells were transfected with pEF1/V5-HisB/rhesus MCH-1R plasmid (see Example 2). Forty-eight hours after transfection, the transfected monolayer cells were rinsed with the assay buffer (Hanks' balanced salt solution containing 20 mM HEPES, 0.2% BSA and 100 μg/ml bacitracin, pH 7.4). The cells were then incubated in 250 μl well of the same buffer with [^125I]-MCH (100 pM, NEN Life Science Products, Boston, Mass.) or [^125I]-[Phe^13,Tyr^19]-MCH (100 pM, NEN Life Science Products) for 30 minutes at 37° C. After the incubation, the cells were washed three times with the ice cold assay buffer and lysed with 500 μl/well of 2 M NaOH. The lysates were transferred into test tubes and the cell- bound radioactivity was measured by a COBLA Quantum γ-counter (Packard Instrument, Meriden, CT). Nonspecific binding was defined in the presence of 1 μM cold MCH or [Phe^13,Tyr^19]-MCH for the corresponding radio ligands.

[5] = biological target: rhesus monkey MCH-1R (melanin-concentrating hormone type 1 receptor) (rhesus monkey) (UniProt Q8MJ89); test: radioligand binding, 100 pM, in the presence of 1 uM cold [Phe13,Tyr19]-MCH, HEK293T cells expressing rhesus MCH-1R, replicate 2
[6] = biological target: rhesus monkey MCH-1R (melanin-concentrating hormone type 1 receptor) (rhesus monkey) (UniProt Q8MJ89); test: radioligand binding, 100 pM, HEK293T cells expressing rhesus MCH-1R, replicate 1
[7] = biological target: rhesus monkey MCH-1R (melanin-concentrating hormone type 1 receptor) (rhesus monkey) (UniProt Q8MJ89); test: radioligand binding, 100 pM, in the presence of 1 uM cold [Phe13,Tyr19]-MCH, HEK293T cells expressing rhesus MCH-1R, replicate 1
[8] = biological target: rhesus monkey MCH-1R (melanin-concentrating hormone type 1 receptor) (rhesus monkey) (UniProt Q8MJ89); test: radioligand binding, 100 pM, HEK293T cells expressing rhesus MCH-1R, replicate 3
[9] = biological target: rhesus monkey MCH-1R (melanin-concentrating hormone type 1 receptor) (rhesus monkey) (UniProt Q8MJ89); test: radioligand binding, 100 pM, in the presence of 1 uM cold [Phe13,Tyr19]-MCH, HEK293T cells expressing rhesus MCH-1R, replicate 3
[10] = biological target: rhesus monkey MCH-1R (melanin-concentrating hormone type 1 receptor) (rhesus monkey) (UniProt Q8MJ89); test: radioligand binding, 100 pM, HEK293T cells expressing rhesus MCH-1R, replicate 2
[11] = biological target: T2, rhesus monkey MCH-1R (melanin-concentrating hormone type 1 receptor) (rhesus monkey), Q8MJ89; test: displacement of 100 pM [125I]-MCH from HEK293T cells expressing rhesus MCH-1R, filtration
T2 chain: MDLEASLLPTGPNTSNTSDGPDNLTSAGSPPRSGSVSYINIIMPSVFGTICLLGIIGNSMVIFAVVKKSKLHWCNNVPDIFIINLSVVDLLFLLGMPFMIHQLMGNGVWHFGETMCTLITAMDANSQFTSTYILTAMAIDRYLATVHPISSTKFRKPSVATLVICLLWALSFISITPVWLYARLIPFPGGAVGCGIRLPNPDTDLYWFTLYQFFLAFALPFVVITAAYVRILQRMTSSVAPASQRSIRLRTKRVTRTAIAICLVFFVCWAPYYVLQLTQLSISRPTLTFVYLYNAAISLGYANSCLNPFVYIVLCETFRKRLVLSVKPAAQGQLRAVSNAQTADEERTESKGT

[12] = biological target: T2, rhesus monkey MCH-1R …; test: cell-based or functional assay
[13] = biological target: T3, rhesus monkey MCH-1R (melanin-concentrating hormone type 1 receptor) (rhesus monkey, UniProt Q8MJ89 1-353); test: displacement of 100 pM [125I]-MCH from HEK293T cells expressing rhesus MCH-1R, filtration
T3 construct: also called rhesus MCH-1R; Rhesus MCH-1R
Method: as §1, with “(4×10⁵” for “(4×10^5”, “[²⁵I]-MCH” for “[^25I]-MCH”
IC₅₀ values of MCH and [Phe¹³,Tyr¹⁹]-MCH in this experiment were calculated as 0.074 and 0.14 nM, respectively.

[14] = biological target: T3, rhesus monkey MCH-1R …; test: cell-based or functional assay
[15] = Mock transfected HEK293T, 100 pM radioligand
[16] = Rhesus MCH-1R transfected HEK293T, 100 pM radioligand, 30 min, 37° C.

Molecule: CSCC[C@@H]1NC(=O)[C@@H](NC(=O)[C@H](CCCNC(=N)N)NC(=O)[C@H](CC(C)C)NC(=O)[C@H](CCSC)NC(=O)[C@H](CC(=O)O)NC(=O)[C@H](Cc2ccccc2)NC(=O)[C@@H](N)CC(=O)O)CSSC[C@@H](C(=O)N[C@@H](Cc2c[nH]c3ccccc23)C(=O)N[C@@H](CCC(N)=O)C(=O)N[C@H](C(=O)O)C(C)C)NC(=O)[C@@H]2CCCN2C(=O)[C@H](CCCNC(=N)N)NC(=O)[C@H](Cc2ccc(O)cc2)NC(=O)[C@H](C(C)C)NC(=O)[C@H](CCCNC(=N)N)NC(=O)CNC(=O)[C@H](CC(C)C)NC1=O [MCH, Melanin-concentrating hormone]
- EC50 (rhesus MCH-1R [1]): 0.3 nM
- IC50 (rhesus MCH-1R [2]): 0.074 nM

Molecule: [^125I]-MCH
- Specific binding into mock transfected cells (in words) ([3]; 100 pM radioligand): Specific binding was not observed
- [125I]-MCH binding, Total binding [3, 15]: 209.9 cpm and 215.8 cpm and 239.8 cpm
- [125I]-MCH binding, Nonspecific binding ([3]; Mock transfected HEK293T, 100 pM radioligand in the presence of 1 μM cold MCH): 172.0 cpm and 180.9 cpm and 184.1 cpm
- Binding to HEK293T cells expressing rhesus MCH-1R (in words) (rhesus MCH-1R [4]; 100 pM radioligand): bound to the HEK293T cells expressing rhesus MCH-1R with good windows
- [125I]-MCH binding, Total binding (rhesus MCH-1R [4]; [16]): 2542.8 cpm and 2893.4 cpm and 2315.5 cpm

Molecule: [^125I]-[Phe^13,Tyr^19]-MCH
- Specific binding into mock transfected cells (in words) ([3]; 100 pM radioligand): Specific binding was not observed
- [125I]-[Phe13,Tyr19]-MCH binding, Total binding [3, 15]: 708.9 cpm and 663.3 cpm and 771.5 cpm
- [125I]-[Phe13,Tyr19]-MCH binding, Nonspecific binding ([3]; Mock transfected HEK293T, 100 pM radioligand in the presence of 1 μM cold [Phe13,Tyr19]-MCH): 539.7 cpm and 537.7 cpm and 557.8 cpm
- Binding to HEK293T cells expressing rhesus MCH-1R (in words) (rhesus MCH-1R [4]; 100 pM radioligand): bound to the HEK293T cells expressing rhesus MCH-1R with good windows
- [125I]-[Phe13,Tyr19]-MCH binding, Nonspecific binding (rhesus MCH-1R [4]; Rhesus MCH-1R transfected HEK293T, 100 pM radioligand in the presence of 1 μM cold [Phe13,Tyr19]-MCH): 1524.1 cpm and 2023.5 cpm and 1029.6 cpm
- [125I]-[Phe13,Tyr19]-MCH binding, Total binding (rhesus MCH-1R [4]; [16]): 5353.0 cpm and 5542.3 cpm and 6345.9 cpm

Molecule: [^125I]-[Phe^13,Tyr^19]-MCH (from UniProt P20382 147-165) (peptide)
- Nonspecific binding (cpm) [5]: 2020 cpm
- Total binding (cpm) [6]: 5350 cpm
- Nonspecific binding (cpm) [7]: 1520 cpm
- Total binding (cpm) [8]: 6350 cpm
- Nonspecific binding (cpm) [9]: 1030 cpm
- Total binding (cpm) [10]: 5540 cpm

Molecule: DFDMLRCMLGRVYRPCWQV (peptide, UniProt P20382 147-165, looked up, modifications not checked) [MCH (melanin-concentrating hormone), unlabelled, P20382 147-165]
- IC50 [11]: 0.074 nM
- increase in intracellular calcium levels (fura-2) in HEK293T cells transiently expressing rhesus MCH-1R, EC50 [12]: 0.3 nM

B1: [Phe^13,Tyr^19]-MCH, unlabelled (peptide)
peptide: DFDMLRCMLGRVFRPCWQY
modifications: disulfide 7-16 (inferred)
notes: Only the new residues (Phe13, Tyr19) are printed; also called cold [Phe^13,Tyr^19]-MCH
- IC50 [13]: 0.14 nM
- increase in intracellular calcium levels (fura-2) in HEK293T cells transiently expressing rhesus MCH-1R, EC50 [14]: 1.1 nM
